Data from patent publication US9937265B2, “Self-assembling peptide and polysaccharide complexes” (University of Leeds, priority 2013, dated 2018).
Blank lines part the entries; values can stand above or below the substance they belong to.

How the values were obtained:
Format in all cases: physicochemical
[1] = High resolution 1H-NMR study of peptide self-assembly as a function of concentration and time (c*); conditions: for c*: critical concentration for aggregation, physiological-like solution, with GAG estimated from monomer level at ~5000 μM total peptide
Experimental: High Resolution ^1H-NMR Study of Peptide Self-Assembly as a Function of Concentration
(2,2,3,3-d4)-trimethylsilyl-3-propionic acid (TMSP, chemical shift 0 ppm) an internal reference standard was added to all peptide solutions. NMR data were acquired at room temperature. A pre-saturation program was used to minimize the water peak, and 1024 scans were measured per spectrum. Sample spectra were recorded at various time-points after preparation to ensure the solutions had reached stable equilibrium. The aromatic multiplet at chemical shift 6.9-7.8 ppm was integrated, relative to the reference peak.
High resolution solution ^1H NMR was used to follow the self-assembly of the peptides in physiological-like solutions as a function of time. To measure self-assembly, the line width broadening of the NMR spectra is exploited. The population of peptide in an aggregated state gives rise to spectra that are so broad that they are lost in the baseline; in contrast, the population of peptide in monomeric state gives rise to high resolution spectra. By integrating the splitting pattern arising from the aromatic region and normalising it with respect to the peak observed due to a known standard, the fraction of monomer can be estimated.

[2] = Visual observation of gelation of peptide and peptide:GAG samples (systematic mixing study); conditions: for Gel appearance: 20 mg/ml (Table 3); for Time to gel 20 mg/ml / self-assembly and gelation / time to form a self-supporting gel (gelation time) / Gel lifetime 20 mg/ml: 20 mg/ml peptide; for c*gel: peptide alone
Experimental: Preparation of Peptide Solutions
Solutions of peptides were prepared directly in either D2O or H2O containing either 130 or 200 mM NaCl or PBS. Peptide concentrations in the millimolar range given for the NMR studies were values multiplied by an appropriate factor to account for the actual percentage peptide content. The samples were vortexed for 20 seconds, and then sonicated for 15 minutes. Solution pD was measured and adjusted to either 7.4 or 6.0±0.5 using a calibrated pH meter and the relation pD =pH meter reading +0.417. Any adjustment of pD, if necessary, was made with minimal μL volumes of either HCl or DCl and/or either NaOH or NaOD. Finally, solution vials were closed, sealed with PTFE tape, and then warmed to approximately 80° C. to maximise peptide solubility. Solutions were left to equilibrate at room temperature.
Preparation of Peptide:Glycosaminoglycan Gels.
The concentration of peptide was kept constant for each sample (20 mg/ml) and the molar ratio of GAG subunit to one peptide was increased. The samples were named by the number of GAG subunits to each peptide present e.g. P11-12:GAG 1:10=one P11-12 peptide monomer to ten GAG dimer subunits. GAG was added to peptide solutions after preparation as stated above. The mixtures were vortexed as heated again to ensure complete mixing.
The effects of mixing chondroitin sulphate GAG with the peptides were investigated. It was hypothesised that the charged GAG chains would interact electrostatically with the charged peptides. To establish whether such an interaction was possible, visual observations of a systematic mixing study was carried out and the morphology of the aggregates formed during mixing studied using TEM. • P11-4: […]

[3] = Rheological study of peptide and peptide:glycosaminoglycan gels (amplitude and frequency sweeps); conditions: for G′ at 2 Hz 20 mg/ml / G″ at 2 Hz 20 mg/ml: 2 Hz (walking frequency); for G′ at 2 Hz 20 mg/ml / G″ at 2 Hz 20 mg/ml / plateau elastic modulus G′N°: 25° C.; for J, lower limit of the distance between nearest cross links: calculated from plateau elastic modulus by rubber-like elasticity theory, T=298K; for plateau elastic modulus G′N° / Phase angle: peptide gels in PBS at 20 mg/ml; for Phase angle: 25° C. (Table 2)
Experimental: Rheological Study of Peptide:Glycosaminoglycan Gels
Measurements were performed using a cone-plate geometry (cone angle: 1°, diameter: 50 mm, gap: 0.033 mm). All the tests were performed at 25° C., utilizing a solvent trap and the atmosphere within was kept saturated to minimize evaporation of the peptide samples. To ensure the measurements were made in the linear viscoelastic regime (LVER), amplitude sweeps were performed in a shear strain controlled mode from 0.01-100%. Two amplitude sweeps were carried out for each sample (1 Hz and 20 Hz) and a strain level was chosen at which the elastic modulus (G′) and viscous modulus (G″) were independent of strain amplitude at the two different frequency levels. The dynamic moduli of the hydrogels were measured as a frequency function with the sweeps carried out between 1 and 20 Hz. Samples were allowed to equilibrate for 15 minutes once loaded prior to the start of testing. Fresh samples were used for the amplitude and frequency sweeps. After the frequency sweeps, two more amplitude weeps (1 Hz and 20 Hz) were carried out in a stress controlled mode to confirm the testing was performed within the LVER. The stress range was chosen based on the stress values from the frequency sweeps at 1 and 20 Hz: if these two values were then independent of stress amplitude, then this confirmed that testing was within the LVER.
Tests were conducted to provide a peptide gel of similar stiffness to that of the nucleus pulposus. Rheometry was carried out on the peptide gels in PBS at 20 mg/ml. Amplitude sweeps were first carried out to determine the LVER region.
The rheological properties of the peptide:GAG samples were examined and compared to the rheological properties of peptides alone to establish how the addition of GAG affected the material properties of the gels. The frequency sweeps from the study (data not shown) for the various peptide:GAG combinations can be summarized as follows: P11-4: GAG and viscous modulus vs. frequency, starting frequency 1 Hz, end frequency: 20 Hz, strain controlled: 0.15% (control), 0.175% (1:2) and 0.04% (1:10). Temp: 25° C. 20 days old. P11-8:GAG elastic and viscous modulus vs. frequency, starting frequency 1 Hz, end frequency: 20 Hz, Strain controlled: 0.1% (1:2 and 1:10), Temp: 25° C., 1.5 months old. P11-9:GAG elastic and viscous modulus vs. frequency, starting frequency 1 Hz, end frequency: 20 Hz, Strain controlled: 0.5%, Temp: 25° C. P11-12:GAG Elastic and viscous modulus vs. frequency, starting frequency 1 Hz, end frequency: 20 Hz, Strain controlled: 0.25% (1:0.5), 0.1% (1:2), 0.05% (1:10), 0.15% (1:100), Temp: 25° C. 1:0.5, 1:2 and 1:10 2 months old and 1:100 6 days old. • P11-4: […]

[4] = Peptide dissolution from gel into supernatant (UV spectroscopy, 279 nm); conditions: at 3-4 days, 20 mg/ml gel
Experimental: 2.5 ml of 130 mM NaCl, D2O, pD 7.4 supernatant was added on top of the SAP:GAG gels. The concentration of peptide dissolved into the supernatant as a function of time was determined via UV spectroscopy. The UV wavelength of 279 nm corresponds to the […] of the tryptophan residue, found in position 6 of the SAP, and so this can be used to determine the molar concentration of the peptide taking into account the molar extinction coefficient of the tryptophan residue.

- c* [1]: >3100 µM
- Gel appearance [2]: Clear liquid
- Time to gel 20 mg/ml [2]: never
- self-assembly and gelation [2]: does not self-assemble
Substance: CH3CO-O-Q-O-F-O-W-O-F-O-Q-O-NH2 [Peptide P11-28]

Substance: CH3CO-Q-Q-O-F-O-W-O-F-O-Q-Q-NH2 (QQXFXWXFXQQ; HELM PEPTIDE1{[ac].Q.Q.[Orn].F.[Orn].W.[Orn].F.[Orn].Q.Q.[am]}$$$$V2.0; SMILES CC(=O)N[C@@H](CCC(N)=O)C(=O)N[C@@H](CCC(N)=O)C(=O)N[C@@H](CCCN)C(=O)N[C@@H](Cc1ccccc1)C(=O)N[C@@H](CCCN)C(=O)N[C@@H](Cc1c[nH]c2ccccc12)C(=O)N[C@@H](CCCN)C(=O)N[C@@H](Cc1ccccc1)C(=O)N[C@@H](CCCN)C(=O)N[C@@H](CCC(N)=O)C(=O)N[C@@H](CCC(N)=O)C(N)=O) [Peptide P11-14]
- c* [1]: >3600 µM
- Gel appearance [2]: Clear liquid
- Time to gel 20 mg/ml [2]: never
- self-assembly and gelation [2]: does not self-assemble

Substance: CH3CO-Q-Q-R-F-E-W-E-F-E-Q-Q-NH2 (Ac-QQRFEWEFEQQ-NH2) [Peptide P11-4]
- c* [1]: 310 ± 140 µM
- G′ at 2 Hz 20 mg/ml [3]: 1,065 Pa
- G″ at 2 Hz 20 mg/ml [3]: 205 Pa
- Gel appearance [2]: Slightly cloudy
- Time to gel 20 mg/ml [2]: mins-hours
- time to form a self-supporting gel (gelation time) [2]: hours
- Gel lifetime 20 mg/ml ([2]; unit in cell beside): >1 mth
- c*gel [2]: 2000 ± 600 µM

Substance: CH3CO-Q-Q-R-F-O-W-O-F-E-Q-Q-NH2 (QQRFXWXFEQQ; HELM PEPTIDE1{[ac].Q.Q.R.F.[Orn].W.[Orn].F.E.Q.Q.[am]}$$$$V2.0; SMILES CC(=O)N[C@@H](CCC(N)=O)C(=O)N[C@@H](CCC(N)=O)C(=O)N[C@@H](CCCNC(=N)N)C(=O)N[C@@H](Cc1ccccc1)C(=O)N[C@@H](CCCN)C(=O)N[C@@H](Cc1c[nH]c2ccccc12)C(=O)N[C@@H](CCCN)C(=O)N[C@@H](Cc1ccccc1)C(=O)N[C@@H](CCC(=O)O)C(=O)N[C@@H](CCC(N)=O)C(=O)N[C@@H](CCC(N)=O)C(N)=O) [Peptide P11-8]
- c* [1]: 400 ± 100 µM
- G′ at 2 Hz 20 mg/ml [3]: 4,881 Pa
- G″ at 2 Hz 20 mg/ml [3]: 552 Pa
- J, lower limit of the distance between nearest cross links [3]: 11.6 nm
- plateau elastic modulus G′N° [3]: 5,221 kg m^−1s^−2
- Phase angle [3]: ~8°
- Gel appearance [2]: Inhomogenous
- Time to gel 20 mg/ml [2]: days
- time to form a self-supporting gel (gelation time) [2]: days
- Gel lifetime 20 mg/ml ([2]; yr and mths or words printed in the cell): Still some self-
- c*gel [2]: 2000 ± 600 µM

Substance: CH3CO-S-S-R-F-E-W-E-F-E-S-S-NH2 (Ac-SSRFEWEFESS-NH2) [Peptide P11-9]
- c* [1]: 1160 ± 175 µM
- G′ at 2 Hz 20 mg/ml [3]: 8 Pa
- G″ at 2 Hz 20 mg/ml [3]: 5 Pa
- Gel appearance [2]: Clear self-
- Time to gel 20 mg/ml [2]: minutes
- time to form a self-supporting gel (gelation time) [2]: minutes
- gel state on storage ([2]; after a year): still a self-supporting gel
- c*gel [2]: 4500 ± 1500 µM

Substance: CH3CO-S-S-R-F-O-W-O-F-E-S-S-NH2 (SSRFXWXFESS; HELM PEPTIDE1{[ac].S.S.R.F.[Orn].W.[Orn].F.E.S.S.[am]}$$$$V2.0; SMILES CC(=O)N[C@@H](CO)C(=O)N[C@@H](CO)C(=O)N[C@@H](CCCNC(=N)N)C(=O)N[C@@H](Cc1ccccc1)C(=O)N[C@@H](CCCN)C(=O)N[C@@H](Cc1c[nH]c2ccccc12)C(=O)N[C@@H](CCCN)C(=O)N[C@@H](Cc1ccccc1)C(=O)N[C@@H](CCC(=O)O)C(=O)N[C@@H](CO)C(=O)N[C@@H](CO)C(N)=O) [Peptide P11-12]
- peptide dissolved from the gel [4]: 39.9±9.15%
- time to reach equilibrium state of self-assembly ([1]; 1H NMR aromatic integral vs time, without GAG): around 1 month
- c* [1]: 2300 ± 750 µM
- G′ at 2 Hz 20 mg/ml [3]: 20,510 Pa
- G″ at 2 Hz 20 mg/ml [3]: 3067 Pa
- J, lower limit of the distance between nearest cross links [3]: 7.2 nm
- gel stiffness / moduli compared, in words ([3]; frequency sweeps, compared with peptide alone or other gels): forms the stiffest gel
- plateau elastic modulus G′N° [3]: 22,285 kg m^−1s^−2
- Phase angle [3]: ~9°
- Gel appearance [2]: Cloudy self-
- Time to gel 20 mg/ml [2]: minutes
- time to form a self-supporting gel (gelation time) [2]: minutes
- c*gel [2]: 2300 ± 750 µM
